According to patent US20240043537A1:

Tests used:
CD3 on T-cells = CD3 on T-cells (UniProt P07766); assay: cell-based or functional assay
[1] = target: CD3 (as used for the BIACORE kinetics of Table 11) (UniProt P07766); assay: SPR (BIACORE)
Sequence of CD3 (as used for the BIACORE kinetics of Table 11) (P07766 23-126): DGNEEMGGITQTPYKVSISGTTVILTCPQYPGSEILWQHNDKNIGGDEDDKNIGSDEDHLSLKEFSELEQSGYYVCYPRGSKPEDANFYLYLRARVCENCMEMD

Sequence of CD3 on T-cells (P07766 23-207): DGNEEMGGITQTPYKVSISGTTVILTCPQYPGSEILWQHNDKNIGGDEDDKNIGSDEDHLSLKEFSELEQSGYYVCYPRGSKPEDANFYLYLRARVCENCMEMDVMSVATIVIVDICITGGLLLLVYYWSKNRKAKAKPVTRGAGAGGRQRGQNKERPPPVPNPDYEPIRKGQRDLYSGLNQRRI

Binder	EC50 of cytolysis at 18 hours (CTL assay, Pan-T-cells and MOLM-13, E:T = 5:1) (CD3 on T-cells) [ng/mL]	R: ratio of 18 hour EC50 to DART-A-WT (CTL assay, Pan-T-cells and MOLM-13, E:T = 5:1) (CD3 on T-cells)	R: ratio of 42 hour EC50 to DART-A-WT (CTL assay, Pan-T-cells and MOLM-13, E:T = 5:1) (CD3 on T-cells)	Kd [1] [nM]	R (KD ratio to DART-A-WT) [1]	R (ka ratio to DART-A-WT) [1]	R (kd ratio to DART-A-WT) [1]	koff [1] [s⁻¹]	kon [1] [M⁻¹ s⁻¹]	EC50 of cytolysis at 42 hours (CTL assay, Pan-T-cells and MOLM-13, E:T = 5:1) (CD3 on T-cells) [ng/mL]	max % CytoTox at 18 hours (CTL assay, Pan-T-cells and MOLM-13, E:T = 5:1) (CD3 on T-cells) [%]	max % CytoTox at 42 hours (CTL assay, Pan-T-cells and MOLM-13, E:T = 5:1) (CD3 on T-cells) [%]
DART-A-M10 (bispecific antibody) chain 1: DFVMTQSPDSLAVSLGERVTMSCKSSQSLLNSGNQKNYLTWYQQKPGQPPKLLIYWASTRESGVPDRFSGSGSGTDFTLTISSLQAEDVAVYYCQNDYSYPYTFGQGTKLEIKGGGSGGGGEVQLVESGGGLVQPGGSLRLSCAASGFTFSTYAMNWVRQAPGKGLEWVGRIRSKYNNYATYYADSVKDRFTISRDDSKNSLYLQMNSLKTEDTAVYYCVRHGNIGNSYVSWFAYWGQGTLVTVSSGGCGGGKVAALKEKVAALKEKVAALKEKVAALKE chain 2: QAVVTQEPSLTVSPGGTVTLTCRSSTGAVTTSNYANWVQQKPGQAPRGLIGGTNKRAPWTPARFSGSLLGGKAALTITGAQAEDEADYYCALWYSNLWVFGGGTKLTVLGGGGSGGGGEVQLVQSGAELKKPGASVKVSCKASGYTFTDYYMKWVRQAPGQGLEWIGDIIPSNGATFYNQKFKGRVTITVDKSTSTAYMELSSLRSEDTAVYYCARSHLLRASWFAYWGQGTLVTVSSGGCGGGEVAALEKEVAALEKEVAALEKEVAALEK	0.426	5.4	33.7	43.3	5.3	1.4	7.6	0.031	717000	0.095	39.3	29.9
DART-A-M16 (bispecific antibody) chain 1: DFVMTQSPDSLAVSLGERVTMSCKSSQSLLNSGNQKNYLTWYQQKPGQPPKLLIYWASTRESGVPDRFSGSGSGTDFTLTISSLQAEDVAVYYCQNDYSYPYTFGQGTKLEIKGGGSGGGGEVQLVESGGGLVQPGGSLRLSCAASGFTFSTDAMNWVRQAPGKGLEWVGRIRSKYNNYATYYADSVKDRFTISRDDSKNSLYLQMNSLKTEDTAVYYCVRHGNFGNSYVSWFAYWGQGTLVTVSSGGCGGGKVAALKEKVAALKEKVAALKEKVAALKE chain 2: QAVVTQEPSLTVSPGGTVTLTCRSSTGAVTTSNYANWVQQKPGQAPRGLIGGTNKRAPWTPARFSGSLLGGKAALTITGAQAEDEADYYCALWYSNLWVFGGGTKLTVLGGGGSGGGGEVQLVQSGAELKKPGASVKVSCKASGYTFTDYYMKWVRQAPGQGLEWIGDIIPSNGATFYNQKFKGRVTITVDKSTSTAYMELSSLRSEDTAVYYCARSHLLRASWFAYWGQGTLVTVSSGGCGGGEVAALEKEVAALEKEVAALEKEVAALEK				301	37	0.7	25	0.104	347000			
DART-A-M14 (bispecific antibody) chain 1: DFVMTQSPDSLAVSLGERVTMSCKSSQSLLNSGNQKNYLTWYQQKPGQPPKLLIYWASTRESGVPDRFSGSGSGTDFTLTISSLQAEDVAVYYCQNDYSYPYTFGQGTKLEIKGGGSGGGGEVQLVESGGGLVQPGGSLRLSCAASGFTFSDYAMNWVRQAPGKGLEWVGRIRSKYNNYATYYADSVKDRFTISRDDSKNSLYLQMNSLKTEDTAVYYCVRHGNFGNSYVSWFAYWGQGTLVTVSSGGCGGGKVAALKEKVAALKEKVAALKEKVAALKE chain 2: QAVVTQEPSLTVSPGGTVTLTCRSSTGAVTTSNYANWVQQKPGQAPRGLIGGTNKRAPWTPARFSGSLLGGKAALTITGAQAEDEADYYCALWYSNLWVFGGGTKLTVLGGGGSGGGGEVQLVQSGAELKKPGASVKVSCKASGYTFTDYYMKWVRQAPGQGLEWIGDIIPSNGATFYNQKFKGRVTITVDKSTSTAYMELSSLRSEDTAVYYCARSHLLRASWFAYWGQGTLVTVSSGGCGGGEVAALEKEVAALEKEVAALEKEVAALEK	0.492	6.2	39.3	46.6	5.7	0.6	3.5	0.0143	308000	0.11	44.7	31.4
DART-A-M7 (bispecific antibody) chain 1: DFVMTQSPDSLAVSLGERVTMSCKSSQSLLNSGNQKNYLTWYQQKPGQPPKLLIYWASTRESGVPDRFSGSGSGTDFTLTISSLQAEDVAVYYCQNDYSYPYTFGQGTKLEIKGGGSGGGGEVQLVESGGGLVQPGGSLRLSCAASGFTFSTYAMNWVRQAPGKGLEWVGRIRSKYNNYATYYADSVKDRFTISRDDSKNSLYLQMNSLKTEDTAVYYCVRHDNFGNSYVSWFAYWGQGTLVTVSSGGCGGGKVAALKEKVAALKEKVAALKEKVAALKE chain 2: QAVVTQEPSLTVSPGGTVTLTCRSSTGAVTTSNYANWVQQKPGQAPRGLIGGTNKRAPWTPARFSGSLLGGKAALTITGAQAEDEADYYCALWYSNLWVFGGGTKLTVLGGGGSGGGGEVQLVQSGAELKKPGASVKVSCKASGYTFTDYYMKWVRQAPGQGLEWIGDIIPSNGATFYNQKFKGRVTITVDKSTSTAYMELSSLRSEDTAVYYCARSHLLRASWFAYWGQGTLVTVSSGGCGGGEVAALEKEVAALEKEVAALEKEVAALEK	0.304	3.8	10.8	22.5	2.8	2	5.6	0.0229	1.02e+06	0.03	41.4	32.5

Binders with a lower Kd [1], results first:

EC50 of cytolysis at 18 hours (CTL assay, Pan-T-cells and MOLM-13, E:T = 5:1) (CD3 on T-cells) [ng/mL]	R: ratio of 18 hour EC50 to DART-A-WT (CTL assay, Pan-T-cells and MOLM-13, E:T = 5:1) (CD3 on T-cells)	R: ratio of 42 hour EC50 to DART-A-WT (CTL assay, Pan-T-cells and MOLM-13, E:T = 5:1) (CD3 on T-cells)	Kd [1] [nM]	R (KD ratio to DART-A-WT) [1]	R (ka ratio to DART-A-WT) [1]	R (kd ratio to DART-A-WT) [1]	koff [1] [s⁻¹]	kon [1] [M⁻¹ s⁻¹]	EC50 of cytolysis at 42 hours (CTL assay, Pan-T-cells and MOLM-13, E:T = 5:1) (CD3 on T-cells) [ng/mL]	Binder	max % CytoTox at 18 hours (CTL assay, Pan-T-cells and MOLM-13, E:T = 5:1) (CD3 on T-cells) [%]	max % CytoTox at 42 hours (CTL assay, Pan-T-cells and MOLM-13, E:T = 5:1) (CD3 on T-cells) [%]
0.026	0.3	0	4.18	0.5	4.9	2.5	0.0103	2.45e+06		DART-A-M21 (bispecific antibody) chain 1: DFVMTQSPDSLAVSLGERVTMSCKSSQSLLNSGNQKNYLTWYQQKPGQPPKLLIYWASTRESGVPDRFSGSGSGTDFTLTISSLQAEDVAVYYCQNDYSYPYTFGQGTKLEIKGGGSGGGGEVQLVESGGGLVQPGGSLRLSCAASGFTFSTYAMNWVRQAPGKGLEWVGRIRSKYNNYATYYADSVKDRFTISRDDSKNSLYLQMNSLKTEDTAVYYCVRHKNFGNSYVSFFAYWGQGTLVTVSSGGCGGGKVAALKEKVAALKEKVAALKEKVAALKE chain 2: QAVVTQEPSLTVSPGGTVTLTCRSSTGAVTTSNYANWVQQKPGQAPRGLIGGTNKRAPWTPARFSGSLLGGKAALTITGAQAEDEADYYCALWYSNLWVFGGGTKLTVLGGGGSGGGGEVQLVQSGAELKKPGASVKVSCKASGYTFTDYYMKWVRQAPGQGLEWIGDIIPSNGATFYNQKFKGRVTITVDKSTSTAYMELSSLRSEDTAVYYCARSHLLRASWFAYWGQGTLVTVSSGGCGGGEVAALEKEVAALEKEVAALEKEVAALEK	36.5	29.9
0.225	2.9	3.8	21.4	2.6	2.6	6.8	0.028	1.31e+06	0.011	DART-A-M5 (bispecific antibody) chain 1: DFVMTQSPDSLAVSLGERVTMSCKSSQSLLNSGNQKNYLTWYQQKPGQPPKLLIYWASTRESGVPDRFSGSGSGTDFTLTISSLQAEDVAVYYCQNDYSYPYTFGQGTKLEIKGGGSGGGGEVQLVESGGGLVQPGGSLRLSCAASGFTFSTYAMNWVRQAPGKGLEWVGRIRSKYNNYATYYADSVKDRFTISRDDSKNSLYLQMNSLKTEDTAVYYCVRHGNFGNSGVSWFAYWGQGTLVTVSSGGCGGGKVAALKEKVAALKEKVAALKEKVAALKE chain 2: QAVVTQEPSLTVSPGGTVTLTCRSSTGAVTTSNYANWVQQKPGQAPRGLIGGTNKRAPWTPARFSGSLLGGKAALTITGAQAEDEADYYCALWYSNLWVFGGGTKLTVLGGGGSGGGGEVQLVQSGAELKKPGASVKVSCKASGYTFTDYYMKWVRQAPGQGLEWIGDIIPSNGATFYNQKFKGRVTITVDKSTSTAYMELSSLRSEDTAVYYCARSHLLRASWFAYWGQGTLVTVSSGGCGGGEVAALEKEVAALEKEVAALEKEVAALEK	40.8	28.4
0.259	3.3	13.5	18.9	2.3	7.7	18	0.0732	3.87e+06	0.038	DART-A-M20 (bispecific antibody) chain 1: DFVMTQSPDSLAVSLGERVTMSCKSSQSLLNSGNQKNYLTWYQQKPGQPPKLLIYWASTRESGVPDRFSGSGSGTDFTLTISSLQAEDVAVYYCQNDYSYPYTFGQGTKLEIKGGGSGGGGEVQLVESGGGLVQPGGSLRLSCAASGFTFSTYAMNWVRQAPGKGLEWVGRIRSKYNNYATYYADSVKDRFTISRDDSKNSLYLQMNSLKTEDTAVYYCVRHKNFGNSGVSWFAYWGQGTLVTVSSGGCGGGKVAALKEKVAALKEKVAALKEKVAALKE chain 2: QAVVTQEPSLTVSPGGTVTLTCRSSTGAVTTSNYANWVQQKPGQAPRGLIGGTNKRAPWTPARFSGSLLGGKAALTITGAQAEDEADYYCALWYSNLWVFGGGTKLTVLGGGGSGGGGEVQLVQSGAELKKPGASVKVSCKASGYTFTDYYMKWVRQAPGQGLEWIGDIIPSNGATFYNQKFKGRVTITVDKSTSTAYMELSSLRSEDTAVYYCARSHLLRASWFAYWGQGTLVTVSSGGCGGGEVAALEKEVAALEKEVAALEKEVAALEK	37.5	30.9
